The text below walks through data of paper PMC4926278.

The target in assay [1] is Vpu-S52/56D, full-length Vpu (NL4-3) double mutant (HIV-1 strain NL4-3). Nature of the assay: SEC; time-dependent SEC from a stock solution over up to 12 days in 50 mM NaCl buffer; peak area P1/(P1+P2) over time fitted with a logistic growth function (dimer to higher oligomer).
For assay [2], the target named is Vpu-S52/56N, full-length Vpu (NL4-3) double mutant (HIV-1 strain NL4-3). Described as above.

Consider “Vpu-S52/56D, full-length Vpu (NL4-3) double mutant (natural protein)”, for which the growth rate c of the higher oligomer (logistic fit of P1/(P1+P2) over time) in assay [1] is 0.56 day^−1.
Consider “Vpu-S52/56N, full-length Vpu (NL4-3) double mutant (natural protein)”, for which, in assay [2], the growth rate c of the higher oligomer (logistic fit of P1/(P1+P2) over time) came out at 1.05 day^−1.
